# Laboratory results published in PMC10842050 (Journal of molecular biology, 2023).
# T1: P22 portal protein gp1 (bacteriophage P22), P26744
# T1 chain: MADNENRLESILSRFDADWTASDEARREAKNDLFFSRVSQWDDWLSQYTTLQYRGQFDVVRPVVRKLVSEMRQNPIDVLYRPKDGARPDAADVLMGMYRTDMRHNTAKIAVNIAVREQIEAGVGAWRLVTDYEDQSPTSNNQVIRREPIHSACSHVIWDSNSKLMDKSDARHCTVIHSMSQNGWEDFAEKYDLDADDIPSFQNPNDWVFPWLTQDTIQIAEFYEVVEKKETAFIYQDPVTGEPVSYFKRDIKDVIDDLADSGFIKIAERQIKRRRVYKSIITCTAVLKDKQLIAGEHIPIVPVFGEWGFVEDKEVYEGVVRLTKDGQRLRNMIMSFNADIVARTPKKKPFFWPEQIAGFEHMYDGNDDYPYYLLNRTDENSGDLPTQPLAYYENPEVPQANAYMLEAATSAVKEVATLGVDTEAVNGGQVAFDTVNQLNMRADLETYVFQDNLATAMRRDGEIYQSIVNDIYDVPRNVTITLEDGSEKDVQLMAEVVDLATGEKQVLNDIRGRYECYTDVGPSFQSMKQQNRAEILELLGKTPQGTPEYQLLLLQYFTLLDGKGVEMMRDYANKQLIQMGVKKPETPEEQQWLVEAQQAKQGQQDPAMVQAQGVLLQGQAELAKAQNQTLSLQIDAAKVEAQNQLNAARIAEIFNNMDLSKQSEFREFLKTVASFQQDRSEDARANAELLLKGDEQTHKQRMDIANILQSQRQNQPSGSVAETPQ
# B1: P22 portal protein gp1, P26744 1-725 (natural protein)
# chain: T1 chain
# B2: P22 tail needle gp26 (natural protein, bacteriophage P22)
# chain: MADPSLNNPVVIQATRLDASILPRNVFSKSYLLYVIAQGTDVGAIAGKANEAGQGAYDAQVKNDEQDVELADHEARIKQLRIDVDDHESRITANTKAITALNVRVTTAEGEIASLQTNVSALDGRVTTAENNISALQADYVSKTATTSQSLASPLNVTTSYSVGGKKVLGARQTGWTAATGTANKGVFDADLTFAVSDTYTQSEIQAIANALITERRRTKALEDALRAHGLID
# B3: P22 head-to-tail adapter gp4 (natural protein, bacteriophage P22)
# chain: MQIKTKGDLVRAALRKLGVASDATLTDVEPQSMQDAVDDLEAMMAEWYQDGKGIITGYVFSDDENPPAEGDDHGLRSSAVSAVFHNLACRIAPDYALEATAKIIATAKYGKELLYKQTAISRAKRAPYPSRMPTGSGNSFANLNEWHYFPGEQNADSTTPHDEGNG
# Key:
# [1] = molecular target: T1, P22 portal protein gp1 (bacteriophage …); experiment: cryo-EM structure; conditions: remark: other sources report otherwise
# [2] = molecular target: the molecule itself; experiment: cryo-EM structure
Binder,stoichiometry N [1],stoichiometry N [2]
B1,12,
B2,,3
B3,,12
